How the values were obtained:
[1] = system: mTOR (phospho-4E-BP1 T37/46); test: Western blot of phospho-4E-BP1 as reporter of mTOR activity; format: cell-based, human; settings: 50 nM NLGN3 vs aCSF
Description: Top panel, 4E-P1^T37/46; bottom panel, total 4E-BP1. B) Quantification of p4E-BP1T37/46/4E-BP1 ratio fold change after NLGN3 exposure normalized to aCSF control (unpaired two-tailed Student's t-test). C) 50 nM NLGN3-induced increase in SU-pcGBM2 proliferation index (EdU assay) is blocked by inhibition of PI3K by BKM120 (100 nM). […] All experiments performed in n=3 biological replicates. Data shown as mean±SEM. (See also FIG. 34, Table in FIG. 18.)
Endogenous protein levels were determined using Western blot analysis. Briefly, after various treatments, 400,000 SU-pcGBM2 cells were lysed and loaded onto SDS-PAGE gels. Proteins were separated with gel electrophoresis and transferred to a PVDF membrane. Proteins were then probed for various antibodies as described in extended experimental procedures.

[2] = system: NLGN3 mRNA in SU-pcGBM2 cells; test: qPCR of NLGN3 gene expression in SU-pcGBM2 cells; format: cell-based, human; settings: 50 nM recombinant NLGN3, 12 hour vs vehicle
[3] = system: HGG patient-derived cell lines (pediatric cortical glioblastoma, DIPG, adult glioblastoma); test: EdU proliferation index of various HGG patient-derived cell lines exposed to NLGN3; format: cell-based, human; settings: 50 nM NLGN3 for 24 hours
Description: A) Recombinant NLGN3 promotes pediatric high-grade glioma cell proliferation in a dose-dependent manner, plateauing at a low nanomolar concentration. 7-point dose curve plots proliferation index as measured by EdU^+/DAPI^+ staining at 24 hours following exposure of SU-pcGBM2 cells to NLGN3 at concentrations ranging from 0-100 nM. Shaded region indicates concentration present in active CM. B) Proliferation indices of various HGG patient-derived cell lines exposed to 50 nM NLGN3 for 24 hours. Data are shown as mean±SEM. ***P<0.001 by unpaired two-tailed Student's t-tests. C) Neurexin-1β, which binds to NLGN3 with high affinity, abrogates the mitogenic effect of active slice CM. […]
NLGN3 promotes proliferation in a broad range of HGG cultures. […] After 24-hour exposure, all cell lines were evaluated with the EdU assay to determine proliferation index (unpaired two-tailed Student's t-tests).
To assess the number of cells actively synthesizing new DNA in response to various conditions (see extended experimental procedures), SU-pcGBM2, SU-DIPGIV, SU-DIPGXIII, or SU-GBM035 cells were exposed to active CM or various recombinant proteins along with 10-μM EdU and fixed after 24 hours. EdU incorporation was determined using Click-iT EdU visualization (Invitrogen, Grand Island, N.Y.). […]

SU-pcGBM2 cells = test: Annexin V FACS analysis of cell death; format: cell-based; settings: 50 nM NLGN3, 24 h vs PBS
Description: After 24-hr exposure to PBS or NLGN3 (50 nM), SU-pcGBM2 cells were stained with DAPI (X-axis) and Annexin V-FITC (Y-axis) to detect cell death by FACS analysis, performed in biological duplicate. Live Annexin V^−/DAPI^− cells shown in lower left quadrant of contour plots; pre-apoptotic Annexin V^+/DAPI^− cells, left upper quadrant; dead Annexin V^+/DAPI^+ cells, right upper quadrant.
SU-pcGBM2 cells were cultured in minimal growth media together with 50 nM NLGN-3 recombinant protein (dissolved in PBS) or PBS only as a vehicle control in duplicate for 24 hrs. Cells were harvested for FACS analyses of apoptosis using Annexin V-FITC Apoptosis Detection Kit II (556570, BD Biosciences) according to the manufacturer's instruction with slight modifications. DAPI was used in combination with Annexin V-FITC to stain the apoptotic cell population instead of PI. The stained cells were analyzed using a BD Fortessa FACS machine (BD Biosciences). The data were analyzed using Flowjo software (FLOWJO, LLC).

B1: NLGN3: Recombinant full-length neuroligin-3 (Origene), tested as glioma mitogen (protein, listed as Mus musculus)
chain: MWLQPSLSLSPTPTVGRSLCLTLGFLSLVLRASTQAPAPTVNTHFGKLRGARVPLPSEILGPVDQYLGVPYAAPPIGEKRFLPPEPPPSWSGIRNATHFPPVCPQNIHTAVPEVMLPVWFTANLDIVATYIQEPNEDCLYLNVYVPTEDGSGAKKQGEDLADNDGDEDEDIRDSGAKPVMVYIHGGSYMEGTGNMIDGSVLASYGNVIVITLNYRVGVLGFLSTGDQAAKGNYGLLDQIQALRWVSENIAFFGGDPRRITVFGSGIGASCVSLLTLSHHSEGLFQRAIIQSGSALSSWAVNYQPVKYTSLLADKVGCNVLDTVDMVDCLRQKSAKELVEQDIQPARYHVAFGPVIDGDVIPDDPEILMEQGEFLNYDIMLGVNQGEGLKFVEGVVDPEDGVSGTDFDYSVSNFVDNLYGYPEGKDTLRETIKFMYTDWADRDNPETRRKTLVALFTDHQWVEPSVVTADLHARYGSPTYFYAFYHHCQSLMKPAWSDAAHGDEVPYVFGVPMVGPTDLFPCNFSKNDVMLSAVVMTYWTNFAKTGDPNKPVPQDTKFIHTKANRFEEVAWSKYNPRDQLYLHIGLKPRVRDHYRATKVAFWKHLVPHLYNLHDMFHYTSTTTKVPPPDTTHSSHITRRPNGKTWSTKRPAISPAYSNENAPGSWNGDQDAGPLLVENPRDYSTELSVTIAVGASLLFLNVLAFAALYYRKDKRRQEPLRQPSPQRGTGAPELGTAPEEELAALQLGPTHHECEAGPPHDTLRLTALPDYTLTLRRSPDDIPLMTPNTITMIPNSLVGLQTLHPYNTFAAGFNSTGLPHSHSTTRV
phospho-4E-BP1 T37/46 relative to total 4E-BP1 [1]: increase in phospho-4E-BP1^T37/46 relative to total 4E-BP1 | NLGN3 gene expression [2]: increase in glioma cell NLGN3 gene expression | effect on proliferation index [3]: promoted a significant increase in the proliferation index | cell death by Annexin V FACS analysis (SU-pcGBM2 cells): no change in cell death
